Source: publication PMC9728131, “Host acid signal controls Salmonella flagella biogenesis through CadC-YdiV axis”

Columns and labels:
[1] = molecular target: T1, CadCc (Escherichia coli K-12 MG1655 (cloning template per Methods; text discusses Salmonella CadC)) (UniProt P23890); assay: BLI; conditions: EMSA: 20 mM Tris-HCl pH 8.0, 100 mM NaCl, 1 mM MgCl2, 1 mM ZnCl2, 4% glycerol, RT 10 min (competition 4 C, 30 min + 30 min); BLI: PBS + 1 mM ZnCl2 (CadCc …)
T1 sequence: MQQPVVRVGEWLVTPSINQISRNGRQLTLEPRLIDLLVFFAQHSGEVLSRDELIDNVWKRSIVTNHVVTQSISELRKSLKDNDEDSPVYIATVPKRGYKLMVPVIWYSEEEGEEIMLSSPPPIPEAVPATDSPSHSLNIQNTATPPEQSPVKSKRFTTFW

[2] = molecular target: T2, H-NS (Escherichia coli K-12 MG1655 (cloning …, UniProt P0ACF8 1-137)); assay: BLI; PBS without ZnCl2; printed unit umoL; kdis 0.0145/s; EMSA: 20 mM Tris-HCl pH 8.0, 100 mM NaCl, 1 mM MgCl2, 1 mM ZnCl2, 4% glycerol, RT 10 min (competition 4 C, 30 min + 30 min); BLI: PBS + 1 mM ZnCl2 (CadCc, 50 ug/mL) or PBS (H-NS), 25 C; footprinting: 30 C, 30 min; conditions: protein: recombinant; tags: N-terminal 6xHis (pGL01); chain copies: 2; Methods: 'C-terminus'); blunt
T2 sequence: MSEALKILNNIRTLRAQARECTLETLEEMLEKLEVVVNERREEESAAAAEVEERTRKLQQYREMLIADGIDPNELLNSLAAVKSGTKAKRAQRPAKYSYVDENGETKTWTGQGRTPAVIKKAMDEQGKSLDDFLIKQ

With “TCATCATATATAATGATAT (double strand) [19 nt overlap DNA of ydiV promoter]” the Kd [1] was 203 nM.

B1: 19 nt overlap DNA of ydiV promoter (dsDNA)
DNA 1: TCATCATATATAATGATAT
DNA 2: ATATCATTATATATGATGA
For B1, the Kd [2] was 533 ± 12.7 nM.
